What follows are sequences tested on Escherichia coli TOP10 (assay: shrunken log2 fold change of peptide-encoding DNA abundance (4.5 h post-induction vs induction); higher = less antimicrobial activity (less host growth inhibition)). Conditions: time post-induction: 4.5 h; library: site-saturation at positions 5, 18, 19, 20.
With RRIRWRPPRLPRPRPRPSGWPRP the “shrunken log2 fold change” value was 0.422. In the case of RRIRIRPPRLPRPRPRPRLYPRP, the “shrunken log2 fold change” value is reported as 0.0739. RRIRRRPPRLPRPRPRPPERPRP was tested, and the “shrunken log2 fold change” value was 0.643. RRIRERPPRLPRPRPRPFNPPRP was tested, and the “shrunken log2 fold change” value was -0.442. In the case of RRIRERPPRLPRPRPRPYGGPRP, the “shrunken log2 fold change” value is reported as -0.286. RRIRMRPPRLPRPRPRPRYLPRP was tested, and the “shrunken log2 fold change” value was -0.0395. For RRIRNRPPRLPRPRPRPWQIPRP, the “shrunken log2 fold change” value was -0.102. In the case of RRIRQRPPRLPRPRPRPLIAPRP, the “shrunken log2 fold change” value is reported as -0.124. RRIRERPPRLPRPRPRPAHNPRP was tested, and the “shrunken log2 fold change” value was -0.0074. With RRIRYRPPRLPRPRPRPNVQPRP the “shrunken log2 fold change” value was -0.0298. RRIRVRPPRLPRPRPRPRMFPRP was tested, and the “shrunken log2 fold change” value was -0.0394. RRIRCRPPRLPRPRPRPQGEPRP was tested, and the “shrunken log2 fold change” value was 0.161. For RRIRGRPPRLPRPRPRPCIGPRP, the “shrunken log2 fold change” value was -0.143. With RRIRNRPPRLPRPRPRPIMCPRP the “shrunken log2 fold change” value was -0.148. With RRIRSRPPRLPRPRPRPPNAPRP the “shrunken log2 fold change” value was 0.0817. RRIRQRPPRLPRPRPRPDSGPRP was tested, and the “shrunken log2 fold change” value was -0.0171. For RRIRIRPPRLPRPRPRPDPDPRP, the “shrunken log2 fold change” value was -0.131. In the case of RRIRWRPPRLPRPRPRPQQSPRP, the “shrunken log2 fold change” value is reported as -0.0166. In the case of RRIRWRPPRLPRPRPRPDPIPRP, the “shrunken log2 fold change” value is reported as -0.242. With RRIRQRPPRLPRPRPRPECKPRP the “shrunken log2 fold change” value was -0.0182. In the case of RRIRGRPPRLPRPRPRPHKCPRP, the “shrunken log2 fold change” value is reported as -0.111. For RRIRFRPPRLPRPRPRPIYRPRP, the “shrunken log2 fold change” value was -0.122. RRIRQRPPRLPRPRPRPERQPRP was tested, and the “shrunken log2 fold change” value was -0.0407. For RRIRMRPPRLPRPRPRPGQEPRP, the “shrunken log2 fold change” value was 0.605. With RRIRCRPPRLPRPRPRPKAEPRP the “shrunken log2 fold change” value was 0.173. For RRIRSRPPRLPRPRPRPLFDPRP, the “shrunken log2 fold change” value was -0.335. In the case of RRIRERPPRLPRPRPRPVDQPRP, the “shrunken log2 fold change” value is reported as 0.0107. RRIRMRPPRLPRPRPRPNMCPRP was tested, and the “shrunken log2 fold change” value was 0.0492. For RRIRGRPPRLPRPRPRPMEFPRP, the “shrunken log2 fold change” value was 0.0673. In the case of RRIRNRPPRLPRPRPRPNYAPRP, the “shrunken log2 fold change” value is reported as -0.178. In the case of RRIRHRPPRLPRPRPRPYNGPRP, the “shrunken log2 fold change” value is reported as -0.835. RRIRQRPPRLPRPRPRPLWVPRP was tested, and the “shrunken log2 fold change” value was 0.221. For RRIRARPPRLPRPRPRPWKYPRP, the “shrunken log2 fold change” value was -0.408. With RRIRSRPPRLPRPRPRPLFKPRP the “shrunken log2 fold change” value was -0.127. With RRIRMRPPRLPRPRPRPLRAPRP the “shrunken log2 fold change” value was 2.97. In the case of RRIRERPPRLPRPRPRPHSNPRP, the “shrunken log2 fold change” value is reported as -0.255. With RRIRIRPPRLPRPRPRPHVPPRP the “shrunken log2 fold change” value was -0.00519. RRIRCRPPRLPRPRPRPQITPRP was tested, and the “shrunken log2 fold change” value was -0.639. With RRIRGRPPRLPRPRPRPRGMPRP the “shrunken log2 fold change” value was 0.939. RRIRRRPPRLPRPRPRPWDSPRP was tested, and the “shrunken log2 fold change” value was 0.0548. RRIRQRPPRLPRPRPRPTMGPRP was tested, and the “shrunken log2 fold change” value was -0.0283. In the case of RRIRSRPPRLPRPRPRPTRLPRP, the “shrunken log2 fold change” value is reported as 0.699. With RRIRYRPPRLPRPRPRPHEHPRP the “shrunken log2 fold change” value was -0.0681. For RRIRSRPPRLPRPRPRPCIAPRP, the “shrunken log2 fold change” value was -0.22. For RRIRSRPPRLPRPRPRPAAFPRP, the “shrunken log2 fold change” value was 0.29. RRIRYRPPRLPRPRPRPPSAPRP was tested, and the “shrunken log2 fold change” value was 0.388. For RRIRKRPPRLPRPRPRPTDLPRP, the “shrunken log2 fold change” value was 0.0464. In the case of RRIRSRPPRLPRPRPRPHNIPRP, the “shrunken log2 fold change” value is reported as -0.211. In the case of RRIRPRPPRLPRPRPRPIPFPRP, the “shrunken log2 fold change” value is reported as -0.0358. For RRIRWRPPRLPRPRPRPYVYPRP, the “shrunken log2 fold change” value was 0.0229. With RRIRKRPPRLPRPRPRPEAVPRP the “shrunken log2 fold change” value was 0.15. RRIRARPPRLPRPRPRPMALPRP was tested, and the “shrunken log2 fold change” value was 0.272. RRIRARPPRLPRPRPRPENFPRP was tested, and the “shrunken log2 fold change” value was 0.0336. For RRIRGRPPRLPRPRPRPPYMPRP, the “shrunken log2 fold change” value was -0.0678. In the case of RRIRSRPPRLPRPRPRPRATPRP, the “shrunken log2 fold change” value is reported as 0.301. RRIRSRPPRLPRPRPRPLIQPRP was tested, and the “shrunken log2 fold change” value was -0.319. With RRIRQRPPRLPRPRPRPLRMPRP the “shrunken log2 fold change” value was 0.483. RRIRFRPPRLPRPRPRPIGEPRP was tested, and the “shrunken log2 fold change” value was 0.0336. For RRIRVRPPRLPRPRPRPFPIPRP, the “shrunken log2 fold change” value was -0.39. With RRIRYRPPRLPRPRPRPPPAPRP the “shrunken log2 fold change” value was 0.878. For RRIRGRPPRLPRPRPRPPLIPRP, the “shrunken log2 fold change” value was 0.669. For RRIRERPPRLPRPRPRPREHPRP, the “shrunken log2 fold change” value was -0.0329. For RRIRFRPPRLPRPRPRPCLKPRP, the “shrunken log2 fold change” value was -0.148. RRIRDRPPRLPRPRPRPLTTPRP was tested, and the “shrunken log2 fold change” value was 0.135. For RRIRTRPPRLPRPRPRPNKEPRP, the “shrunken log2 fold change” value was -0.00295. RRIRPRPPRLPRPRPRPKNDPRP was tested, and the “shrunken log2 fold change” value was -0.108. For RRIRERPPRLPRPRPRPIIKPRP, the “shrunken log2 fold change” value was -0.703. For RRIRSRPPRLPRPRPRPWLTPRP, the “shrunken log2 fold change” value was -0.0675. RRIRRRPPRLPRPRPRPWHEPRP was tested, and the “shrunken log2 fold change” value was 0.041. RRIRERPPRLPRPRPRPPMRPRP was tested, and the “shrunken log2 fold change” value was 0.779. With RRIRLRPPRLPRPRPRPDTDPRP the “shrunken log2 fold change” value was 0.0475. In the case of RRIRGRPPRLPRPRPRPSHCPRP, the “shrunken log2 fold change” value is reported as 0.204. For RRIRVRPPRLPRPRPRPFGWPRP, the “shrunken log2 fold change” value was 0.372. For RRIRFRPPRLPRPRPRPQNFPRP, the “shrunken log2 fold change” value was 0.0645. For RRIRSRPPRLPRPRPRPNEHPRP, the “shrunken log2 fold change” value was -0.655.
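Further: peptides expressed intracellularly from a pBAD plasmid library in pooled LB shake-flask culture, induced with 0.3% L-arabinose, DNA abundance read by NGS, three biological replicates, DESeq2 with apeglm shrinkage.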
